# Results reported in the DeepSol protein solubility set.
# Assay: soluble on expression in E. coli; label from the status in PepcDB or PDB records
row,Sequence,soluble on expression in E. coli
1,MAAIGVHLGCTSACVAVYKDGRAGVVANDAGDRVTPAVVAYSENEEIVGLAAKQSRIRNISNTVMKVKQILGRSSSDPQAQKYIAESKCLVIEKNGKLRYEIDTGEETKFVNPEDVARLIFSKMKETAHSVLGSDANDVVITVPFDFGEKQKNALGEAARAAGFNVLRLIHEPSAALLAYGIGQDSPTGKSNILVFKLGGTSLSLSVMEVNSGIYRVLSTNTDDNIGGAHFTETLAQYLASEFQRSFKHDVRGNARAMMKLTNSAEVAKHSLSTLGSANCFLDSLYEGQDFDCNVSRARFELLCSPLFNKCIEAIRGLLDQNGFTADDINKVVLCGGSSRIPKLQQLIKDLFPAVELLNSIPPDEVIPIGAAIEAGILIGKENLLVEDSLMIECSARDILVKGVDESGASRFTVLFPSGTPLPARRQHTLQAPGSISSVCLELYESDGKNSAKEETKFAQVVLQDLDKKENGLRDILAVLTMKRDGSLHVTCTDQETGKCEAISIEIAS,not soluble
2,MIPMFKKKPLIGMVHLKPLPGSYHYNDNFDDIVDFAIKEAKKLEEAGFDAVMIENFGDAPFKKEADKITIASMAVIAKAIKEEVSLPLGINILRNDAIGAYSIAYVVKADFIRVNVLSGVAFTDQGIIEGKAYELAKLKKLLPSKIKVFADVHVKHAYHFIDFESSLLDTVERGLADAVIISGKRTGKEVDIEKLKLAKELVDVPVIVGSGTNYNNLRILWSYADGFIIGTWIKKDGKANNEIDIDRAKKIVNLANKLKMCLEHHHHHH,soluble
3,MTRKFLNILKERTGVESITREQVRGIRRLVKKAREWDERKAQRYAKSAGKISDEEYSRLWSIDSYVISDSDKEKLKNLDQKTVFNNIMWLSRNAEKIDSNMKKFLGMHVWVVNYWIKTVGSATVRKFLRENNYSGEFVYFLYRYFNL,not soluble
4,MGSSHHHHHHSSGLVPRGSHMIMIHIKAIHDLTVPLETYMPIWPTNPLLEIKPVGTVARDGYKIETISGSTHSGTHIDAPAHMLENGITIDQIDPIRFIGTGYCIKTIPDGNFVRSTHLIEKWKEEYDGSIILIETGWYKKRGFTREFQYEFPGLTEDAAEFLIERNVKLVGIDTLGIEPYQDSDFHVHKKLLSKGIPFIEDLYGLDDLEEGKPYLVVALPLKMKGASGSMARVMALEMD,soluble
5,GPGSMKALVRRFGPEPSVIEECSADQEWEKPCLASTEDTAVAPGDSVKDTRNNLSGSEGLANGRAESSQRAVDVSSFIRLFSVEWCLTEEQQAENSRRLDAFFHPHPAPPSCQPAPLLPSVQTCGETVDPDIWSLPEVSQEELQRWREEKLSLSDRLVWRGRKTIKQVNMRRM,not soluble
6,MVGGMMESYSKFHTILNELKHSAAQFDRQRGEHHRPLFDEVLFHCHGKLLTPCVEEAHSTLQALIREKESGRLTALRAEYLSERLLAQIAALTRELSTQNVRRNEPKPHAYFKKPINELYQELAQHQDWERRLMDLVRDKALLLEQASATEKAAAQQALLQSEQRLNRCREAKIKIEKRITTQERKA,not soluble
7,MYQLSRTQILPVPLTVAWDFFSDPRNLAAITPPDMGFVITSPVPERTHAGMVVTYAVSPFGGLRLPWVTEITHCAEPSLFVDEQRFGPYRFWHHQHHFLEVSGGVEMRDIVHYILPFGIIGRLSAPVVAKRLKAIFDYRRDTLAVRFAALSRGALEHHHHHH,not soluble
8,MAVNVYSTSVTSENLSRHDMLAWVNDSLHLNYTKIEQLCSGAAYCQFMDMLFPGCVHLRKVKFQAKLEHEYIHNFKVLQAAFKKMGVDKIIPVEKLVKGKFQDNFEFIQWFKKFFDANYDGKDYNPLLARQGQDVAPPPNPGDQIF,soluble
9,GPGSMSGSTQRAEQQRRIQQLHERLELYNIADRHTDPTSNSAGGVGFASAGGLETGGGDKAPTTKPSRAAPMSGSPNLKPTSAPTSNAFFFTSSLPRRAADAGAPSSTLGLQQGNGSGSRATAAPSATEIAEVSRASPTPQQQPQVQMPPPAPAPQLARNLAQEFFGSAASPTHASPTRAASRSSAMTSGAAASPVAPERPSVTAAYPESATEATAAATAAKAGSPPLAANVFDYYEDFKSDGSEGDEYEVEEVEECMEDEEDYVGDGEDTDEHARGKASLTLEDVLRRLHRACSGSVDHAAAASPLEQAMAAASASSPLARDPSLATATPAAAAATRVTLTAAAASPIGTTYPFLQQATEVYRQRHLYKATQEHQQHHSPFNTGYAWSTDEETSVTDTSTSEPTEGLGDASESRSASVSSSASAASKGHLTAANAAAAVQNSGLLAAALQPLADTAIATPTASDRASAEKVLPSSALCFDQLETAYRRLLILQQGAKYVSELAGPECFPRPLPRQEEARALAEQRDMVVKRDTEMRAAPPAGSSLEDLRQRESAAIERTLGLLREKFDAAMKSLKPVADREAAIEGKRRTLKQRELDIAKQREARLIVEREVAAAEKRLMERSEQLRKREEDYSARLQQHDHQQKAAQEQIGEVEQLSKQVSSWLAILEERDRRLARKEKRLQRVQADLLKRTEDIIVWKRATQRIKQIPPPPSPPRIS,not soluble
10,MKFTIVIPIFNRVQYIPETLDSVIRQTYTDLEIICVDDCSSDRSPVLLQDYAKTDLRIKVLTHAKNKGLYLARKTGVLNASGDYILFLDCDDVLDLHAVEVIYNALCKNSVEVLEYGYHSIHANENTVPDSAITVDKLFSSLVYDRYPRAGTVWNKAYKTELLKNAFSKMSDFHAVMGEDFYESVIIAYYAKSYSSIDDVLVIYNDESGISNTRKNLASIQKDLDSVVAILNGFRFFFESYASEHKEAVLNIESYYIRYVYYNLILLKTNKTDRKMAVDLLKDYFSAEAAAPYFNKTKPAVTRDAVMYKIRAVIKRYISKKLREMIKKIIRRYDKKPQQK,not soluble
11,MAHHHHHHMDGEALFNHIASCSETGYLTMEDFVRWMSETATDKGQKNYESIDVDERAVMRKALLQLCERLEARCLNSLQMFRLASTMPRAYTERRADIYSLANPHRDALVTPVQLRRCIEEVLGGNPSPREMDALLSFFFPQLPLEEYRSRRDGDLEHALDLKAFQKKYHEMNKLLMLSEPSKQQQQTQQRQQE,soluble
12,MGSDKIHHHHHHMNIRSRTNNADDLAWVHLIERRKQVELWQFSCLRQSYTLELSPNVMEGVKPEGQLVMVQWSPSNDLQRVKVTLNIHEVTDQAAVNHHFKLVPAGCESIIIDIWGILGLIHDEALRRFYLAVLLNNELMGQFFNARASRSHHHNHACGLLEHSHEVAVTAAMLCWRYNVGPLSVGVAFIGGLLHDIGKIHLFYNADTRDGIAGSHESYNFMVLAEPLELLYRSSPKVFEALSSCLSVKIGRRSEAYIPASMVRLCDNLSMEVCHWRTAFADVPPHHWYAHSAMNDQWYKRLG,not soluble
13,MGSDKIHHHHHHMNLVEISDIDKEILMKLEYEFPFDPQPFNIISDGLKISEEELLNRVKKLLEDGIIKRIGMYVSFRAKGMDGALIAARIPQDKIEKFRKIALGIRELTHNYVRDHPKFNIWFVLKANDRDTLNENVKELLSHVESNDYVILYSKKTLKLSVKYDVIRGVSWSPNNTIRSLSKVPTAEELGINKQLLTELSYPLKISQRPFKEIAEKYKMKEDELVELIKELYDKNVIKDYGATLNGEKIGIVENGMVLLDTSNVEQACEKLALNIPEATHVVLRESNDENWKYLCYSMIHASKKETIRNVAKEISKETNSRSYMILFSLENLKPGIVI,not soluble
14,RSLKNEELYHQSYDCVCVMFASIPDFKEFYTESDVNKEGLECLRLLNEIIADFDDLLSKPKFSGVEKIKTIGSTYMAATGLSAIPSQEHAQEPERQYMHIGTMVEFAYALVGKLDAINKHSFNDFKLRVGINHGPVIAGVIGAQKPQYDIWGNTVNVASRMDSTGVLDKIQVTEETSLILQTLGYTCTCRGIINVKGKGDLKTYFVNTEMSR,soluble
15,MGSDKIHHHHHHMGCEIDRDASGLHSLQGLAGRDVSVAAGAKVGWSFMGTGTIATELVVEAIRSVGHSPLWVVSRSKRDADHFAEDLGIPHSTTELGPVLQDPSVGFAYISASLKRRPHYITAAAGAGKHILCDGPISCTSKTASALVELCRGARASLVVNQRLRASTIHQTMRRLVRDGDIGAVQSIVLIRGGPYQAPPNRSARDFNDGSGIYLDVSVENIDLARFLTGAEPVEATALITSEKMVPSQATYILRLSDGSLFQAHESFRTADIESMVLVAGDRGALIAQGTLNGRTSGTLMRRADGRNEAVPVRDHDVHLATVREFANTRGQTPSWLSQGTDSVIALRTVEAVAMSAKKRRTVPIQG,not soluble
16,MTTEKINLLDFDRKGLRTFFAEELGEKAFRAEQVMKWIYHFGCDDFDQMNNINKQLREKLKAKCEIRAPYVSEAQHSADGTIKWAMRVGDQDVETVYIPEDDRATLCVSSQVGCALECKFCSTAQQGFNRNLRVSEIIGQVWRAAREIGLEKETGRRPITNVVMMGMGEPLLNMKNLIPALEIMLDDLGFGLSKRRVTVSTSGVVSGLEQMIGQIDVALAISLHAPNDKLRSEIMPINDRWNIEAFLEVVRRYIASSNANRGKVTVEYVLLDHVNDGTEHAHELAELLKGTPCKINLIPFNPYPGSPYKKPSNSRIDRFQKTLMQYEHTVTIRKTRGDDIDAACGQLVGDVIDRTKRTKAKQFDGQAIPVKTL,not soluble
17,MGSDKIHHHHHHAFCLDNGLGRTPPMGWMSWTAFYCEIDCVKHPTGCINEQLYKDMADQLVSGGYDKVGYKSVHIDDCWSEMERDSHGILVANKTRFPSGMKALAKYMHDRGLKFGIYEDYGTKTCGGYPGSYKHEKVDAQTFAAWDVDYLKLDGCNIDQAMMPIGYPLFEKELNETGRPIMYSCSW,not soluble
18,MDDTLFQLKFTAKQLEKLAKKAEKDSKAEQAKVKKALQQKNVECARVYAENAIRKKNEGVNWLRMASRVDAVASKVQTAVTMKGVTKNMAQVTKALDKALSAMDLQKVSAVMDRFEQQVQNLDVHTSVMEDSVSSATTLTTPQEQVDSLIVQIAEENGLEVLDQLSQLPEGASAVGESSVRSQEDQLSRRLAALRN,not soluble
19,GSHMPTAIESCMVKFELSSSKWHMTSPKPHCVNTTSDGKLKILQSGTYLIYGQVIPVDKKYIKDNAPFVVQIYKKNDVLQTLMNDFQILPIGGVYELHAGDNIYLKFNSKDHIQKTNTYWGIILMPDLPFIS,soluble
20,SNAMEHKIVHVGDIPVANDKPFTLFAGMNVLESRDLAMQICEHYVKVTDKLGIPYVFKASFDKANRSSVHSYRGPGLEEGMKIFQELKETFGVKIITDVHTEAQAQPVADVVDVIQLPAFLARQTDLVEAMAKTGAVINVKKPQFMSPGQVGNIVEKFAECGNDKVILCERGSCHGYDNLVVDMLGFGVMKQASNGSPIIFDVTHSLQMRDPSGAASGGRREQTVELAKAGLATGIAGLFIEAHPNPDKARCDGPSALPLDKLEPFLAQMKALDDLIKSFAHIDIR,soluble
21,MGSDKIHHHHHHPEQIEKYPSIYPDYIGVTIPATIAPMNFSYTDTSYERIDVIVKGHQGKEVHINAKHVNFPEKEWKQLLNSNQGDSLLFTVSIKQKGKWSTYKPFPMYISPHPIDYGLVYRKIAPGYEVYSRMGIYERDLSSHKERPLVENTLVKGMCVNCHAFNRTDPSHFSLHIRGTHGATFMRTGNKDEYLNTKTDQTIAACVYPYWHPGGEYIAYSTNNTRQSFHTVKDERVEVLDLESDVVVYHPADHHLLLCDSLQKKDRFETFPAFSPDGRTLYFCSAEAKKIPEEYKEIRYNLCSIDFDPSTGTFGSRIDTLVNAEALGKSVSFPRPSYDGKYIMFTLSDYGNFSIWHKEANLWLLDLTSGDLRELSEVNSDDTESFHNWSSNSRWFVFSSRRGDGLYTRLYLASMDENGKISKPFLLPQEDPETYYDRSVYSYNVPDFVNAPILLDTKVFEKRITSKERIQVQVGN,not soluble
